Reference: paper PMC9641244

Tests used:
DMC1 E162A = molecular target: T1, DMC1 E162A (Homo sapiens, UniProt Q14565 1-340, E162A); assay: EMSA
T1 sequence: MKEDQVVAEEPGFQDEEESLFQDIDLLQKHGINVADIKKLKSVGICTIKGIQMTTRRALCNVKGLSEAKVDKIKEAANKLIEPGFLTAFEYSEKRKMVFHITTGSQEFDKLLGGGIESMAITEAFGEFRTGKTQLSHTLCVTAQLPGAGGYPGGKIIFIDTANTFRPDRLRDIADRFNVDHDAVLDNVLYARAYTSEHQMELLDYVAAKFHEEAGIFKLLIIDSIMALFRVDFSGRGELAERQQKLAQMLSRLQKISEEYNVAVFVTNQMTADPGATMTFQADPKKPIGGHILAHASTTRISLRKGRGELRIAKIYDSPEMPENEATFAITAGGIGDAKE

Dmc1 E157K = molecular target: T2, Dmc1 E157K (Saccharomyces cerevisiae, UniProt P25453 1-334, E157K); assay: EMSA
T2 sequence: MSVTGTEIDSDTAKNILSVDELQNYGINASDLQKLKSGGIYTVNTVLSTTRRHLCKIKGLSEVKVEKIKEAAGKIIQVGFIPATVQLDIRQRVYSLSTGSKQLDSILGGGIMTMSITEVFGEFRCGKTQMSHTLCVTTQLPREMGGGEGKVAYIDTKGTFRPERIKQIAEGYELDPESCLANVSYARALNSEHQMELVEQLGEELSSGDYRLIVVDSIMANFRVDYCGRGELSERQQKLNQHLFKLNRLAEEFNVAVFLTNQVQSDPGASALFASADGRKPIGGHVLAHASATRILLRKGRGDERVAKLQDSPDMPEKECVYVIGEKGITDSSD

Dmc1 D311K = molecular target: T3, Dmc1 D311K (Saccharomyces cerevisiae, UniProt P25453 1-334, D311K); assay: EMSA
T3 sequence: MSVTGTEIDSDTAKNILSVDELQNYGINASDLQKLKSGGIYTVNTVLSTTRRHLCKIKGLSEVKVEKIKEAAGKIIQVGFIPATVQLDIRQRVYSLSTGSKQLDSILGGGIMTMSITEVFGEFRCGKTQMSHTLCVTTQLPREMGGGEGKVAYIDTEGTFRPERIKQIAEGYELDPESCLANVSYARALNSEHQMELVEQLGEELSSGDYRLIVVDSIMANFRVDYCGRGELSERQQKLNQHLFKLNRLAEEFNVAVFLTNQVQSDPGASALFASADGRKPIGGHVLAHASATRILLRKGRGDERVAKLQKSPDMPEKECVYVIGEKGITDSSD

DMC1 D317A [1] = molecular target: T4, DMC1 D317A (Homo sapiens, UniProt Q14565 1-340, D317A); assay: EMSA
T4 sequence: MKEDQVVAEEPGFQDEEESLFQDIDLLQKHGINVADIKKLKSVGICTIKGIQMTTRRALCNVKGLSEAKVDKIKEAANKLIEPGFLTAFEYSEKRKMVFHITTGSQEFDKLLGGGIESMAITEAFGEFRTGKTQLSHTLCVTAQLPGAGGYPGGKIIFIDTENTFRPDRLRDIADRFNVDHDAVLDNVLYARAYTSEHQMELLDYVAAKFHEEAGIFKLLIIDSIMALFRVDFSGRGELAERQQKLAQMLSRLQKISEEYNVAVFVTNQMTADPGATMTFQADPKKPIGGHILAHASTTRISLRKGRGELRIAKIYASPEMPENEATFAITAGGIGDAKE

DMC1 D317K [2] = molecular target: T5, DMC1 D317K (Homo sapiens, UniProt Q14565 1-340, D317K); assay: EMSA
T5 sequence: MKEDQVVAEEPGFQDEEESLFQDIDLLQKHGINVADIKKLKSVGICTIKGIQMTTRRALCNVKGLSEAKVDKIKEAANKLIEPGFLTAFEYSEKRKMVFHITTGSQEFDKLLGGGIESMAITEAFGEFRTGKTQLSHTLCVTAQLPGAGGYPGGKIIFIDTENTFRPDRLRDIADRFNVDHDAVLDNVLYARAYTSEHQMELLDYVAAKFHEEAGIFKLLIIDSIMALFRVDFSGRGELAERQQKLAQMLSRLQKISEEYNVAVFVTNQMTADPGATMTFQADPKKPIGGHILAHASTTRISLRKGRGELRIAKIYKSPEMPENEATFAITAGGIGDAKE

DMC1 WT = molecular target: T6, DMC1 WT (Homo sapiens, UniProt Q14565 1-340); assay: BLI
T6 sequence: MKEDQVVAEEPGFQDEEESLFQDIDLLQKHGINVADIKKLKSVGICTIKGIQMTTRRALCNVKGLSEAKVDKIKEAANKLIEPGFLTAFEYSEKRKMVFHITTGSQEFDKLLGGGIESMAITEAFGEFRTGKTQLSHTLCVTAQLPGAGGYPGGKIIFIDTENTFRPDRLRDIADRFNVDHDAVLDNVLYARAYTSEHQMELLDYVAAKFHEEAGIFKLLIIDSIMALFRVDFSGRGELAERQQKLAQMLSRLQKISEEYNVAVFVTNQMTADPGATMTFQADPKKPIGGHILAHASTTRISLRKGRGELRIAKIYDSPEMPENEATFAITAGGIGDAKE

DMC1 D317K [3] = molecular target: T5, DMC1 D317K; assay: BLI
DMC1 D317A [4] = molecular target: T4, DMC1 D317A; assay: BLI
DMC1 E162K = molecular target: T7, DMC1 E162K (Homo sapiens, UniProt Q14565 1-340, E162K); assay: BLI
T7 sequence: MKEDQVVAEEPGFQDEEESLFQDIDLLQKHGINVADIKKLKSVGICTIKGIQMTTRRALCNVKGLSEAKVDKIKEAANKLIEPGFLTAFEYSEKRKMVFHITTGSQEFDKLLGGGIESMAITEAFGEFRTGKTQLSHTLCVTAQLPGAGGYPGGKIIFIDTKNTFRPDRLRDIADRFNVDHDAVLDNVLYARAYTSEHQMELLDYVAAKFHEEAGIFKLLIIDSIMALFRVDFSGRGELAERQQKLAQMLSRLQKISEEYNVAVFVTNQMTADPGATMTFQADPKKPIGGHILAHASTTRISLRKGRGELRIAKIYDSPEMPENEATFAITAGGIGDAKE

Measured: binding result

B1: pR231 90-mer (ssDNA)
DNA: AAATCAATCTAAAGTATATATGAGTAAACTTGGTCTGACAGTTACCAATGCTTAATCAGTGAGGCACCTATCTCAGCGATCTGTCTATTT
binds: DMC1 E162A | Dmc1 E157K | Dmc1 D311K | DMC1 D317A [1] | DMC1 D317K [2]

B2: pR231 90-mer biotinylated (ssDNA)
DNA: AAATCAATCTAAAGTATATATGAGTAAACTTGGTCTGACAGTTACCAATGCTTAATCAGTGAGGCACCTATCTCAGCGATCTGTCTATTT
binds: DMC1 WT | DMC1 D317K [3] | DMC1 D317A [4] | DMC1 E162K
